Measured values published in patent US20110070184A1, “METHODS AND COMPOSITIONS FOR TREATING ATHEROSCLEROSIS AND RELATED CONDIDTIONS” (CAROLUS THERPEUTICS, INC., priority 2008, published 2011).

T1: CXCR2 (Homo sapiens, UniProt P25025)
T1 construct: expressed in transfected cells
T1 sequence (P25025 1-360): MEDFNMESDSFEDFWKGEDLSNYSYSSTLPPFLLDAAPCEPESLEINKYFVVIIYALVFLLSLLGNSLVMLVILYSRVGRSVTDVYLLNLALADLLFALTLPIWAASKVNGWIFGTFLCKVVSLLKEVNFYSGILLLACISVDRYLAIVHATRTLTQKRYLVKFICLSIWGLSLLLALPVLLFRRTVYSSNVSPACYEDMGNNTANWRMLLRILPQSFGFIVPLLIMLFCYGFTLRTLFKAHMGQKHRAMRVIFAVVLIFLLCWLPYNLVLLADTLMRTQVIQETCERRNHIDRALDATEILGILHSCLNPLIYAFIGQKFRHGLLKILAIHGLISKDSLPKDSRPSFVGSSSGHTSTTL

B1: MIF: Recombinant macrophage migration inhibitory factor, expressed and purified as described (Bernhagen 1993) (protein)
chain: PMFIVNTNVPRASVPDGFLSELTQQLAQATGKPPQYIAVHVVPDQLMAFGGSSEPCALCSLHSIGKIGGAQNRSYSKLLCGLLAERLRISPDRVYINYYDMNAANVGWNNSTFA

What was measured:
CXCR4 = CXCR4 (Homo sapiens, UniProt P61073); details: data not shown
CXCR4, sequence (P61073 whole entry): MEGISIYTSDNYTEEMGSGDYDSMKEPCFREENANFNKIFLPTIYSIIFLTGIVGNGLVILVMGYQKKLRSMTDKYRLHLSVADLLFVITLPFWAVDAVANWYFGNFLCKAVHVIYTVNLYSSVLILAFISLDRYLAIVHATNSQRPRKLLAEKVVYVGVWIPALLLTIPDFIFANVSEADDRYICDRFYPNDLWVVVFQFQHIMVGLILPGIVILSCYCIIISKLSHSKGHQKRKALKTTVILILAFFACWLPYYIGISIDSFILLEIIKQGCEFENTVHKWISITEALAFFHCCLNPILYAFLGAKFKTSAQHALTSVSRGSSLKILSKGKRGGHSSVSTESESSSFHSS

CCR5 = target: T2, CCR5 (Homo sapiens, UniProt P51681); test: CCR5 internalization in L1.2 CCR5 transfectants; assay type: cell-based; details: data not shown
T2 construct: host or cells: L1.2 (mouse pre-B lymphoma) cells
T2 sequence (P51681 whole entry): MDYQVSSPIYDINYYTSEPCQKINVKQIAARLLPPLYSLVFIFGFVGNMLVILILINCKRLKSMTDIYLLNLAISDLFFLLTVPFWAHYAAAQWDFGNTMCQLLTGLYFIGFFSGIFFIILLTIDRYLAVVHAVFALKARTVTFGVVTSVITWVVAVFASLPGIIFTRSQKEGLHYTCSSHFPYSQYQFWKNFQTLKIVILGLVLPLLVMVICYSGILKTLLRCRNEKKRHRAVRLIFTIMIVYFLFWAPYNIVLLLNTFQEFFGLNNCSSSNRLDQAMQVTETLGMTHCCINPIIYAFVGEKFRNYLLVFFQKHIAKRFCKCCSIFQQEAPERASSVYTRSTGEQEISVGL

[1] = test system: primary human neutrophils; test: Calcium mobilization in neutrophils (Fluo-4 AM); assay type: cell-based
Text: (§1) Calcium mobilization. Neutrophils or L1.2 CXCR2 transfectants were labeled with Fluo-4 AM (Molecular Probes).

[2] = test system: primary CD3+ T lymphocytes; test: Transwell chemotaxis of primary CD3+ T cells toward MIF; assay type: cell-based, human; details: primary CD3+ T lymphocytes devoid of CXCR1 and CXCR2
Procedure: (§2) Chemotaxis assays. […] Pore sizes and intervals were 5 μm and 3 h (monocytes), 3 μm and 1.5 h (T cells), and […] and 1 h (neutrophils).

neutrophil recruitment = test: Model of acute MIF-induced peritonitis; assay type: in vivo, mouse; details: after 4 h, mice with wild-type bone marrow
Procedure: Model of acute peritonitis. […] After 4 h, peritoneal Iavage was performed and Gr-1^+CD115^−F4/80^− neutrophils were quantified by flow cytometry using the relevant conjugated antibodies.

primary human monocytes [3] = test: Arrest of primary monocytes on MIF-pretreated human aortic endothelial cells under flow; assay type: cell-based; details: aortic endothelial cells pretreated with recombinant MIF for 2 h
Procedure: Adhesion assays. Arrest of calcein-AM (Molecular Probes)-labeled monocytes, T cells and L1.2 transfectants was quantified in parallel-wall chambers in flow (1.5 dynes/cm^2, 5 min) (Schober, A., et al. (2004) Circulation 109, 380-385; Osterman, G., et al. (2002) Nat. Immunol. 3, 151-158; Weber, C., et al. (1996) J. Cell Biol. 134, 1063-1073).

primary human monocytes [4] = test: Transwell chemotaxis of primary monocytes toward MIF; assay type: cell-based
Procedure: as §2

[5] = test system: leukocyte adhesion and emigration in postcapillary venules; test: Cremaster microcirculation model, intravital microscopy; assay type: in vivo, mouse; details: MIF injected adjacent to the cremaster muscle
Procedure: Cremaster microcirculation model. […] After 4 h, intravital microscopy (Zeiss Axioplan; 20×) was performed in postcapillary venules (Gregory, J. L., et al. (2004) Arthritis Rheum. 50, 3023-3034; Keane, M. P., et al. (2004) J. Immunol. 172, 2853-2860). Adhesion was measured as leukocytes stationary for more than 30 s, emigration as the number of extravascular leukocytes per field.

CXCR2 [6] = target: T1, CXCR2; test: CXCR2 internalization assay in HEK293-CXCR2 transfectants (FACS); assay type: cell-based; details: stable HEK293 transfectants
Procedure: CXCR internalization assays. […] Internalization was calculated relative to surface expression of buffer-treated cells (100% control) and isotype control staining (0% control): geometric MFI[experimental]−MFI[0% control]/MFI[100% control]−MFI[0% control]×100.

CXCR2 [7] = target: T1, CXCR2; test: Calcium mobilization in L1.2 CXCR2 transfectants (Fluo-4 AM); assay type: cell-based
Text: as §1

Row | Molecule | specific binding of fluorescein-MIF to CXCR4-bearing Jurkat cells (CXCR4) | CCR5 internalization (CCR5) | calcium influx [1] | T-cell transmigration [2] | neutrophil recruitment after intraperitoneal injection (neutrophil recruitment) | arrest of primary human monocytes under flow conditions (primary human monocytes [3]) | MIF concentration that induced optimal chemotaxis (primary human monocytes [4]) | optimum of bell-shaped dose-response curve of induced monocyte migration (primary human monocytes [4]; MIF in lower chamber, primary human PBMC-derived monocytes) | leukocyte adhesion and emigration in postcapillary venules [5] | CXCR2 internalization (surface CXCR2 by FACS) (CXCR2 [6]) | calcium influx (CXCR2 [7])
1 | c1ccc(CNCc2ccc(CN3CCCNCCNCCCNCC3)cc2)nc1 [AMD3465] | inhibited | – | – | – | – | – | – | – | – | – | –
2 | B1 | – | unable to induce CCR5 internalization | induced calcium influx | dose-dependently induced transmigration | elicited neutrophil recruitment | substantially increased the arrest | 2 to 4 nM | 25 to 50 ng/mL | marked increase | induced CXCR2 internalization | dose-dependently induced calcium influx
